{"source": "paper PMC8786865", "biological_target": "SARS-CoV-2 spike protein receptor-binding domain (RBD) (SARS-CoV-2) (UniProt P0DTC2)", "assay": "SPR", "note": "pKd: −log10 of the molar value."}
{"substance": "CR3022", "values": [{"measurement": "pKd", "result": 7.96}]}
